The values that follow are results of earlier work, collected in publication PMC3511906.

The target of data set [1] is CXCR1 (Mus musculus) (UniProt Q810W6).
The next data set deals with CXCR2 (Mus musculus) (UniProt P35343).
Data set [2] has as its target CXCR1 (Mus musculus) (UniProt Q810W6). The source holds these as a separate data set.

Read-outs that look alike come from different tables or passages of the source.

MIP-2, sequence (P10889 28-100): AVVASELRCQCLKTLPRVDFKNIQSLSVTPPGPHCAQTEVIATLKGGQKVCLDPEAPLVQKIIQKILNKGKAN
CXCR1 (Mus musculus), sequence (Q810W6 whole entry): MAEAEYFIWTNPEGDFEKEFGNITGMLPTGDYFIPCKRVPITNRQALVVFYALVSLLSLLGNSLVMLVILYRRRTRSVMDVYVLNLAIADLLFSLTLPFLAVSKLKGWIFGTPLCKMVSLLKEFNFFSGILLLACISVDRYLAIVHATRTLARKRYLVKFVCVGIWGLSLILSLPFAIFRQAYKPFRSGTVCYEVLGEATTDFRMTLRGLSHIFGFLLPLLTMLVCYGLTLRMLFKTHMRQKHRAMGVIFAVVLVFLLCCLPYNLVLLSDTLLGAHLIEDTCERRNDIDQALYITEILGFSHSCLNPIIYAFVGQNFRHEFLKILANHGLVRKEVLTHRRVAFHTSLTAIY
CXCL8, sequence (P10145 28-99): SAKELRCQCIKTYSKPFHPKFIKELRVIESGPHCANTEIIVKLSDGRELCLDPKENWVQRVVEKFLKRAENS
CXCR2 (Mus musculus), sequence (P35343 whole entry): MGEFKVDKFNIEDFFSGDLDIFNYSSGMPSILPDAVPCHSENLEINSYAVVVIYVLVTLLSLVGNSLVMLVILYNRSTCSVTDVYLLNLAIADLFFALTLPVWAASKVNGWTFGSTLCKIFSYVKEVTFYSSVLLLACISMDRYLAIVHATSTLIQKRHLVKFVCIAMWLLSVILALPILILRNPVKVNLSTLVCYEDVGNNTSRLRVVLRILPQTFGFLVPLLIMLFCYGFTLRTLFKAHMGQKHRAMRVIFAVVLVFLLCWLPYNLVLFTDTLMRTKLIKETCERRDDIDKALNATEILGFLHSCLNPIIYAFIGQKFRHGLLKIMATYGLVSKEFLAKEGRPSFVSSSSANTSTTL

On to CXCL8 (from UniProt P10145), for which the Kd in the data set with CXCR1 (Mus musculus) [1] was 10 nM. Regarding MIP-2 (from UniProt P10889), the Kd with CXCR2 (Mus musculus) was 3.5 nM; in the data set with CXCR1 (Mus musculus) [2] it was 643 nM.
